Measured values: patent publication EP2168984B1 (Abbott GmbH & Co. KG, dated 2012)

Key:
Assay in all cases: competition ELISA: soluble cytokine against J695 (100 ng/ml) binding to immobilized human IL-12
human IL-6 = human IL-6 (human, UniProt P05231 30-212)
human TNFα = human TNFα (human, UniProt P01375 77-233)
human IL-2 = human IL-2 (human, UniProt P60568 21-153)
human IL-10 = human IL-10 (human, UniProt P22301 19-178)
human TGF-β1 = human TGF-β1 (human, UniProt P01137 279-390)
human IL-1α = biological target: T1, human IL-1α (human, UniProt P01583 113-271)
T1 sequence (looked up): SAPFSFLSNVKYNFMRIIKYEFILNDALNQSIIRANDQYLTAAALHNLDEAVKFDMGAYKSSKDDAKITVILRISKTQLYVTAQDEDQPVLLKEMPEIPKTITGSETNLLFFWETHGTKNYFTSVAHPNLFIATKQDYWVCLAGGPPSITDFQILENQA

human IGF-I = human IGF-I (human, UniProt P05019 49-118)
human IL-4 = biological target: T2, human IL-4 (human, UniProt P05112 25-153)
T2 sequence (looked up): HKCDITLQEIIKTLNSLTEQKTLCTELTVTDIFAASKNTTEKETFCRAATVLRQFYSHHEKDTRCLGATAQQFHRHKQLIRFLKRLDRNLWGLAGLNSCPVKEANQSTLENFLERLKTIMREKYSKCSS

human IGF-II = human IGF-II (human, UniProt P01344 25-91)
human M-CSF = biological target: T3, human M-CSF (human, UniProt P09603 33-190, limits assumed)
T3 sequence (looked up): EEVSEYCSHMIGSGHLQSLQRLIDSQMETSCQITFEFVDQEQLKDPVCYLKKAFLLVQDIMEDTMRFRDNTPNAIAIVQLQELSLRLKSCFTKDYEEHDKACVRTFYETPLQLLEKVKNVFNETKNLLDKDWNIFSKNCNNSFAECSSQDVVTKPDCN

human LIF = human LIF (human, UniProt P15018 23-202)
human IL-8 = human IL-8 (human, UniProt P10145 28-99, limits assumed)
human IL-17 = human IL-17 (human, UniProt Q16552 20-155, limits assumed)
human lymphotoxin = biological target: T4, human lymphotoxin (human, UniProt P01374 35-205, limits assumed)
T4 sequence (looked up): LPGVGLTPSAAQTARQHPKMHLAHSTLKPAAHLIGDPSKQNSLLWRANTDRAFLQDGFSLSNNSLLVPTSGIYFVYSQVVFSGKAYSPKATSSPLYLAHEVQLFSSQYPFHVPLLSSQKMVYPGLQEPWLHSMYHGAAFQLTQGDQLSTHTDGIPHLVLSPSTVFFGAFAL

human IFN-gamma = biological target: T5, human IFN-gamma (human, UniProt P01579 24-166, limits assumed)
T5 sequence (looked up): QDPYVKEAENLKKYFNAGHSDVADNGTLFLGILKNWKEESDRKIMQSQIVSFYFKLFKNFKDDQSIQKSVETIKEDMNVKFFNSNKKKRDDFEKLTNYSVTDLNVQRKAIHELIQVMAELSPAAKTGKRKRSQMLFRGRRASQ

human IL-1β = human IL-1β (human, UniProt P01584 117-269)
human IL-11 = biological target: T6, human IL-11 (human, UniProt P20809 22-199)
T6 sequence (looked up): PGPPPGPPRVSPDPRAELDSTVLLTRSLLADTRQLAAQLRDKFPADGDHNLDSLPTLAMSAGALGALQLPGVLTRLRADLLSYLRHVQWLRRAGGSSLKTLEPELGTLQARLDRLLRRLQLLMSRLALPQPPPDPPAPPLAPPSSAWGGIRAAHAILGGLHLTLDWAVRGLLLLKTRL

[1] = biological target: T7, human soluble IL-6 receptor (human, UniProt P08887 20-358)
T7 construct: Soluble form
T7 sequence (looked up): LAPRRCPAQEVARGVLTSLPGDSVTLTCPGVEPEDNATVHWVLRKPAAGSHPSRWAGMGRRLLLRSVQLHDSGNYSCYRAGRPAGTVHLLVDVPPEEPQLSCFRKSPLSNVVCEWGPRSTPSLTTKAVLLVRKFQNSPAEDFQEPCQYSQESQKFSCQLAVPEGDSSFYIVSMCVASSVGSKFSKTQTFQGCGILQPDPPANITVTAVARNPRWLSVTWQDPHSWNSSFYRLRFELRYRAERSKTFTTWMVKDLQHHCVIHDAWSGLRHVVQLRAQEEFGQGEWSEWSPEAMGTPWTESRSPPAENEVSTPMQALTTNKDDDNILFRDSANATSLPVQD

Measured: binding result

B1: J695 (human anti-human IL-12 antibody, IgG1) (antibody, V domains shown)
VH: QVQLVESGGGVVQPGRSLRLSCAASGFTFSSYGMHWVRQAPGKGLEWVAFIRYDGSNKYYADSVKGRFTISRDNSKNTLYLQMNSLRAEDTAVYYCKTHGSHDNWGQGTMVTVSS
VL: QSVLTQPPSVSGAPGQRVTISCSGSRSNIGSNTVKWYQQLPGTAPKLLIYYNDQRPSGVPDRFSGSKSGTSASLAITGLQAEDEADYYCQSYDRYTHPALLFGTGTKVTVLG
notes: Tested as whole IgG1 with lambda light chain (detected with anti-human lambda); also called IgG1 J695; Y61-L94Y-L50Y IgG
no binding (tested: 2nM): human IL-6 | human TNFα | human IL-2 | human IL-10 | human TGF-β1 | human IL-1α | human IGF-I | human IL-4 | human IGF-II | human M-CSF | human LIF | human IL-8 | human IL-17 | human lymphotoxin | human IFN-gamma | human IL-1β | human IL-11 | [1]
